Measurements as given in patent US10227575B2, “Multi-domain enzymes having cutinase activity, compositions comprising same and uses thereof” (OZYMES, priority 2015, dated 2019).
Read-outs that look alike come from different tables or passages of the source.

Assays:
[1] = Thermostability of purified KrCUT (40-60° C.); format: biochemical
Method: Enzyme stability was studied over the temperature range of 40-60° C. using purified KrCUT. Aliquots were withdrawn at defined times (10, 30 and 80 min), chilled on ice, and assayed for activity against p-NP butyrate at room temperature. KrCUT appeared thermostable up to 45° C.

[2] = Substrate range on p-NP esters, KrCUT versus KrCUT189; format: biochemical
Method: Esterase activity was determined by monitoring the formation of pNP at 410 nm from various pNP-esters using a Beckman UV spectrophotometer (model DU 640) (21). Substrates were dissolved in isopropanol and were added to 50 mM sodium phosphate buffer pH 8.0 to give 10% (v/v) total isopropanol concentration in a 1 mL reaction volume. pNP-butyrate was used at a final concentration of 1.2 mM. For pNP-caprylate, myristate and palmitate, the final concentration ranged from 0.1 to 0.5 mM. The reaction (1 mL) was started by adding an appropriate amount of enzyme. One enzyme unit (U) is defined as the amount of enzyme that produced 1 μmol of product (pNP) per min; specific activity is expressed as U/mg protein. A molar extinction coefficient of 15 mM^−1 cm^−1 for pNP is used for calculating enzyme activity.

[3] = Method: Molar masses of the samples were determined with universal calibration with the refractive index detector and the viscosity detector. The universal calibration curve was based on polystyrene standards [Polymer Laboratories (Amherst, Mass.) and Aldrich (Oakville, ON)] using the molar masses determined by the manufacturer and the intrinsic viscosities measured by the apparatus. The software OmniSEC™ software from Viscotek was used for data collection and calibration. Separation in THF was performed by injecting 100 μL of 1.5-2 mg/mL solutions of standards or samples into thermostatically controlled SuperRes™ columns [35° C.; PAS-102, PAS102.5, PAS-103L, each 300 mm×8 mm; PolyAnalytik (London, ON)]. The flow rate was 1 mL/min.
Alternatively, a thin film was prepared from 1 g of commercial available PCL pellets and used for degradation. The polymer was dissolved in dichloromethane in a 1 L beaker. The solvent was allowed to evaporate overnight and the resulting film dried to constant weight under reduced pressure. Prior to enzymatic treatment the film was cut into pieces (20 mg) of approximately 1.5 cm×1.5 cm and thickness of approximately 0.1 mm. The reaction mixture was monitored by HPLC and SEC as described above.
To quantify this further, pellets of polycaprolactone (PCL) as well as films of PCL were incubated with KrCUT at various enzyme concentrations (1.25 μM, 2.5 μM, and 5 μM representing 4.7, 9.5 and 19 enzyme Units) at 37° C. The degradation of the polymer was followed over time by analyzing aliquots of the reaction mixture by HPLC for the detection of the released monomer (6-hydroxyhexanoic acid) and characterization of the remaining polymer by SEC after lypholization of the sample.

[4] = Degradation of poly(1,3-propylene adipate); details: 2.5 μM, after 24 hours
[5] = Polymer binding test, cellulose
Method: Different polymers (cellulose, PLA, PCL, and PHB) were tested to evaluate the ability of KrCUT and KrCUT189 to bind these materials. Binding assays for PCL and PLA could not be performed since both polymers were degraded by the enzymes.

B1: KrCUT: mature Kineococcus radiotolerans cutinase, amino acids 34-294 of SEQ ID NO: 1; SEQ ID NO: 6 (protein)
chain: ATCSDVDVVFARGTGETPGLGVVGGPFVRSLTGELSDRTVTSHAVDYAASSSQASAGPGATAMSAHVREVAAACPSTRFVLGGYSQGATVTDIALGIRTGTTTGTPVPAELAGRVAAVVVFGNPLGLSGRTIATASSTYGPKSKDYCNSSDSVCGSAPKTGTGGHLSYASNGSTTDGARFAAGLVRAAGTPTTPTPTPTPTPVPTTCVRDSTRDHVAADRAVSLYGRAYARGSRDSLGATSSYNVVSLQQVEGGWRLVTAC
modifications: Kineococcus radiotolerans; (1)..(261) KrCUT (lacking residues 1-33 of ssKrCUT)
- thermostable up to ([1]; 10, 30 and 80 min heat treatment): up to 45 °C
- activity left after heat treatment ([1]; 50° C. and above, 10 min): virtually no activity left
- activity towards pNB-acetate [2]: little activity
- fold higher activity with pNP butyrate over pNP-palmitate [2]: 8 fold
- substrate giving the highest activity ([2]; p-NP esters): pNP butyrate
- polymer peak in SEC ([3]; 2.5-5 μM, 24 hours): complete disappearance of the polymer
- 6-hydroxy hexanoic acid from PCL pellets, % of the maximum yield ([3]; PCL pellets, 2.5 μM protein, 24 hours): 18%
- degradation of thin films of PCL ([3]; enzyme 1.25 μM, 24 hours): nearly completely degraded
- acidic monomers released from PCL ([3]; enzyme 2.5 or 5 μM, 6 hours, 37° C.): ~90%
- Mn of remaining PCL ([3]; time 0 h): 44000 Daltons
- Mw of remaining PCL ([3]; time 0 h): 63300 Daltons
- PCL (SEC) ([3]; time 0 h): 100%
- acid (HPLC) ([3]; time 0 h): 0%
- Mn of remaining PCL ([3]; time 1 h): 53800 Daltons
- Mw of remaining PCL ([3]; time 1 h): 64400 Daltons
- PCL (SEC) ([3]; time 1 h): 61%
- acid (HPLC) ([3]; time 1 h): 28%
- Mn of remaining PCL ([3]; time 3 h): 55000 Daltons
- Mw of remaining PCL ([3]; time 3 h): 66600 Daltons
- PCL (SEC) ([3]; time 3 h): 27%
- acid (HPLC) ([3]; time 3 h): 60%
- Mn of remaining PCL ([3]; time 6 h): 58200 Daltons
- Mw of remaining PCL ([3]; time 6 h): 68100 Daltons
- PCL (SEC) ([3]; time 6 h): 12%
- acid (HPLC) ([3]; time 6 h): 85%
- Mn of remaining PCL ([3]; time 24 h): 69500 Daltons
- Mw of remaining PCL ([3]; time 24 h): 74000 Daltons
- PCL (SEC) ([3]; time 24 h): 0.3%
- acid (HPLC) ([3]; time 24 h): 100%
- adipic acid found in the reaction mixture [4]: 12%
- binding to cellulose [5]: did not bind
